# Measurements reported in the RNAGym collection of RNA variant scans (doi:10.7554/elife.80360).
# B1: Hairpin Ribozyme (parent)
# chain: GUCCUCUUUCACGUGCGCGUGAAAGAGAGAAGUGAACCAGAGAAACACACGUUGUGGUAUAUUACCUGGUA
# Variants of: B1
# Assay: self-cleavage, relative activity (ratio to wild type); higher = more cleavage; co-transcriptional
row,Variant,self-cleavage
1,GUCCACUUUAACGUGCGCGUGAAAGAGAGAAGUGAACCAGAGAAACACACGUUGUGGUAUAUUACCUGGUA,0.188
2,GUCCACUUUGACGUGCGCGUGAAAGAGAGAAGUGAACCAGAGAAACACACGUUGUGGUAUAUUACCUGGUA,0.129
3,GUCCACUUUCACGUGCGCGUGAAAGAGAGAAGUGAACCAGAGAAACACACGUUGUGGUAUAAUACCUGGUA,0.139
4,GUCCACUUUCACGUGCGCGUGAAAGAGAGAAGUGAACCAGAGAAACACACGUUGUGGUAUACUACCUGGUA,0.224
5,GUCCACUUUCACGUGCGCGUGAAAGAGAGAAGUGAACCAGAGAAACACACGUUAUGGUAUAUUACCUGGUA,0.192
6,GUCCACUUUCACGUGCGCGUGAAAGAGAGAAGUGAACCAGAGAAACACACGUUCUGGUAUAUUACCUGGUA,0.124
7,GUCCACUUUCACGUGCGCGUGAAAGAGAGAAGUGAACCAGAGAAACACACGUUUUGGUAUAUUACCUGGUA,0.327
8,GUCCACUUUCACGUGCGCGUGAAAGAGAGAAGUGAACCAGAGAAACACACGUUGUGGUAUUUUACCUGGUA,0.185
9,GUCCACUUUCACGUGCGCGUGAAAGAGAGAAGUGAACCAGAGAAACACACGUUGUGGUAUGUUACCUGGUA,0.0553
10,GUCCACUUUCACGUGCGCGUGAAAGAGAGAAGAGAACCAGAGAAACACACGUUGUGGUAUAUUACCUGGUA,0.145
11,GUCCACUUUCACGUGCGCGUGAAAGAGAGAAGUGAACCAGAGAAACACACGUUGUGGUCUAUUACCUGGUA,0.262
12,GUCCCCUUUCACGUGCGCGUGAAAGAGAGAAGUGAACCAGAGUAACACACGUUGUGGUAUAUUACCUGGUA,0.0569
13,GUCCCCUUUCACGUGCGCGUGAAAGAGAGAAGUGAACCAGAGCAACACACGUUGUGGUAUAUUACCUGGUA,0.193
14,GUCCACUUUCACGUGCGCGUCAAAGAGAGAAGUGAACCAGAGAAACACACGUUGUGGUAUAUUACCUGGUA,0.156
15,GUCCACUUUCACGUGCGCGUAAAAGAGAGAAGUGAACCAGAGAAACACACGUUGUGGUAUAUUACCUGGUA,0.378
16,GUCCACUUUCACGUGCGCGUGAAAGAGAGAAGUGAACCAGAGAAACACACGUUGUGGUAUAUUACCUGGGA,0.171
17,GUCCCCUUUCACGUGCGCGUGAAAGAGAGUAGUGAACCAGAGAAACACACGUUGUGGUAUAUUACCUGGUA,0.11
18,GUCCACUUUCACGUGCGCGUGAAAGAGAGAAGUGAACCAGAGAAACACACCUUGUGGUAUAUUACCUGGUA,0.324
19,GUCCACUUUCACGUGCGCGUGAAAGAGAGAAGUGAACCAGAGAAACACACUUUGUGGUAUAUUACCUGGUA,0.389
20,GUCCACUUUCACGUGCGCGUGAAACAGAGAAGUGAACCAGAGAAACACACGUUGUGGUAUAUUACCUGGUA,0.162
21,GUCCACUUUCACGUGCGCGUGAAAAAGAGAAGUGAACCAGAGAAACACACGUUGUGGUAUAUUACCUGGUA,0.106
22,GUCCCCUUUCACGUGCGCGUGAAAGAGAGAUGUGAACCAGAGAAACACACGUUGUGGUAUAUUACCUGGUA,0.0715
23,GUCCCCUUUCACGUGCGCGUGAAAGAGAGAGGUGAACCAGAGAAACACACGUUGUGGUAUAUUACCUGGUA,0.391
24,GUCCCCUUUCACGUGCGCGUGAAAGAGAGACGUGAACCAGAGAAACACACGUUGUGGUAUAUUACCUGGUA,0.0543
25,GUCCACUUACACGUGCGCGUGAAAGAGAGAAGUGAACCAGAGAAACACACGUUGUGGUAUAUUACCUGGUA,0.371
26,GUCCACUUGCACGUGCGCGUGAAAGAGAGAAGUGAACCAGAGAAACACACGUUGUGGUAUAUUACCUGGUA,0.231

row,Variant,self-cleavage
1,GUCCACUUUCACGUGCGCGUGAAAGAGAAAAGUGAACCAGAGAAACACACGUUGUGGUAUAUUACCUGGUA,0.156
2,GUCCACUUUCACGUGCGCGUGAAAGAGAUAAGUGAACCAGAGAAACACACGUUGUGGUAUAUUACCUGGUA,0.0792
3,GUCCACUUUCACGAGCGCGUGAAAGAGAGAAGUGAACCAGAGAAACACACGUUGUGGUAUAUUACCUGGUA,0.164
4,GUCCACUUUCACGUGCGCGUGAAAGAGAGAAGUGAACCAGAGAAACACACGUUGUGGUAUAUUAGCUGGUA,0.276
5,GUCCACUUUCACGUGCGCGUGAAAGAGAGAAGUGAACCAGAGAAACACACGUUGUGGUAUAUUAACUGGUA,0.22
6,GUCCACUUUCACGUGCGCGUGAAAGAGAGAAGUGAACCAGAGAAACACACGUUGUGGUAUAUUAUCUGGUA,0.222
7,GUCCCCUUUCACGUGCGCGUGAAAGAGAGAAGUGAACCAGAGAAUCACACGUUGUGGUAUAUUACCUGGUA,0.133
8,GUCCCCUUUCACGUGCGCGUGAAAGAGAGAAGUGAACCAGAGAAGCACACGUUGUGGUAUAUUACCUGGUA,0.157
9,GUCCCCUUUCAAGUGCGCGUGAAAGAGAGAAGUGAACCAGAGAAACACACGUUGUGGUAUAUUACCUGGUA,0.566
10,GUCCCCUUUCAGGUGCGCGUGAAAGAGAGAAGUGAACCAGAGAAACACACGUUGUGGUAUAUUACCUGGUA,0.244
11,GUCCCCUUUCACGUGCGCGUGAAAGAGAGAAGUGAACCAGAGAAACACACGUUGUGGUAUUUUACCUGGUA,0.105
12,GUCCACUUUCACGUGCGCGUGAAAGAGAGAAGUGAACCAGAGAAACACACGUUGUGGGAUAUUACCUGGUA,0.251
13,GUCCCAUUUCACGUGCGCGUGAAAGAGAGAAGUGAACCAGAGAAACACACGUUGUGGUAUAUUACCUGGUA,0.393
14,GUCCCCUUUCACGUGCGCGUGGAAGAGAGAAGUGAACCAGAGAAACACACGUUGUGGUAUAUUACCUGGUA,0.63
15,GUCCACUUUCACGUGCGCGUGAAAGAGAGAAGUGAACCAGAGAAACACACGUUGUAGUAUAUUACCUGGUA,0.214
16,GUCCACCUUCACGUGCGCGUGAAAGAGAGAAGUGAACCAGAGAAACACACGUUGUGGUAUAUUACCUGGUA,0.107
17,GUCCACAUUCACGUGCGCGUGAAAGAGAGAAGUGAACCAGAGAAACACACGUUGUGGUAUAUUACCUGGUA,0.105
18,GUCCCCUUUCACGUGCGCGUGAAAGAGAGAAGUGAAUCAGAGAAACACACGUUGUGGUAUAUUACCUGGUA,0.348
19,GUCCCCUUUCACGUGAGCGUGAAAGAGAGAAGUGAACCAGAGAAACACACGUUGUGGUAUAUUACCUGGUA,0.693
20,GUCCACUUUCACGUGCGCGUGAAAGAGAGAAGUGAACCAGAGAAACACACGUUGUGGUAUAUUACCUGUUA,0.115
21,GUCCACUUUCACGUGCGCGUGAAAGAGAGAAGUGAACCAGAGAAACACACGUUGUGGUAUAUUACCUGCUA,0.0571
22,GUCCACUUUCACGUGCGCGUGAAAGAGAGAAGUGAACCAGAGAAACACACGUUGUGGUAUAUUACCUGAUA,0.0903
23,GUCCACUUUCACGUGCGCGUGAAAGAGAGAAGUGAACCACAGAAACACACGUUGUGGUAUAUUACCUGGUA,0.159
24,GUCCCCUUUCACGUGCGCGUGAAAGAGGGAAGUGAACCAGAGAAACACACGUUGUGGUAUAUUACCUGGUA,0.358
25,GUCCCCUUUCACGUGCGCGUGAAAGAGUGAAGUGAACCAGAGAAACACACGUUGUGGUAUAUUACCUGGUA,0.277
26,GUCCACUUUCACGUGCGCGUGAAAGAGAGAAGUGAACCAGAGAAACAAACGUUGUGGUAUAUUACCUGGUA,0.0341

row,Variant,self-cleavage
1,GUCCCCUUUCACGUGCGCGUGAAAGCGAGAAGUGAACCAGAGAAACACACGUUGUGGUAUAUUACCUGGUA,0.497
2,GUCCCCUUUCACGUGCGCGUGAAAGAGAGAAGUGAACCAGAGAAACGCACGUUGUGGUAUAUUACCUGGUA,0.332
3,GUCCCCUUUCACGUGCGCGUGAAAGAGAGAAGUGAACCAGAGAGACACACGUUGUGGUAUAUUACCUGGUA,0.147
4,GUCCACUUUCACGUGCGCGUGAAAGAGAGAAGUGAACCAGAGUAACACACGUUGUGGUAUAUUACCUGGUA,0.188
5,GUCCACUUUCACGUGCGCGUGAAAGAGAGAAGUGAACGAGAGAAACACACGUUGUGGUAUAUUACCUGGUA,0.0942
6,GUCCACUUUCACGUGCGCGUGAAAGAGAGAAGUGAACCAGAGAAACACACGUUGUGGUAUAUUACCUGGUG,0.264
7,GUCCACUUUCACGUGCGCGUGAAAGAGAGAAGUGAACCAGAGAAACACACGUUGUGGUAUAUUACCUGGUU,0.334
8,GUCCACUUUCACGUGCGCGUGAAAGAGAGAAGUGAACCAGAGAAACACACGUUGUGGUAGAUUACCUGGUA,0.29
9,GUCCCCUUUCACGUGCGCGUGAAAGAGAGAAGUGAACCAGCGAAACACACGUUGUGGUAUAUUACCUGGUA,0.734
10,GUCCCCUUUUACGUGCGCGUGAAAGAGAGAAGUGAACCAGAGAAACACACGUUGUGGUAUAUUACCUGGUA,0.423
11,GUCCCCUUUAACGUGCGCGUGAAAGAGAGAAGUGAACCAGAGAAACACACGUUGUGGUAUAUUACCUGGUA,0.427
12,GUCCCCUUUCACGUGCGCGUGAUAGAGAGAAGUGAACCAGAGAAACACACGUUGUGGUAUAUUACCUGGUA,0.461
13,GUCCACUUUCACGUGCGUGUGAAAGAGAGAAGUGAACCAGAGAAACACACGUUGUGGUAUAUUACCUGGUA,0.554
14,GUCCCCUUUCACGUGCGCGUGAAAGAGAGAAGUGAACCUGAGAAACACACGUUGUGGUAUAUUACCUGGUA,0.228
15,GUCCCCUUUCACGUGCGCGUGAAAGAGAGAAGUGAACCAGAGAAACACCCGUUGUGGUAUAUUACCUGGUA,0.377
16,GUCCCCUUUCACGUGCGCGUGAAAGAGAGAAGUGAACCAGAGAAACACGCGUUGUGGUAUAUUACCUGGUA,0.343
17,GUCCCCUUUCUCGUGCGCGUGAAAGAGAGAAGUGAACCAGAGAAACACACGUUGUGGUAUAUUACCUGGUA,0.55
18,GUCCCCUUUCGCGUGCGCGUGAAAGAGAGAAGUGAACCAGAGAAACACACGUUGUGGUAUAUUACCUGGUA,0.481
19,GUCCACUUUCACGUGCGCAUGAAAGAGAGAAGUGAACCAGAGAAACACACGUUGUGGUAUAUUACCUGGUA,0.395
20,GUCCACUUUCACGUGCGCGUGAAAGAGAGAAGUGAACCAGAGAAACACACGUUGUGGUAUAUUACCGGGUA,0.112
21,GUCCACUUUCACGUGCGCGUGAAAGAGAGAAGUGAACCAGAGAUACACACGUUGUGGUAUAUUACCUGGUA,0.125
22,GUCCCCUUUCACGUGCGCGUGAAAGAGAGAAGUGAACCAGAGAAACACACGUUGUGGUAUAUUACCUGGUG,0.389
23,GUCCACUUUCACGUGCGCGUGAAAGAGAGAAGUGAACCAGAGAAACACACGGUGUGGUAUAUUACCUGGUA,0.392
24,GUCCACUUUCACGUGCGCGUGAAAGAGAGAAGUGAACCAGAGAAACACACGCUGUGGUAUAUUACCUGGUA,0.274
